This is an account of results in patent publication US20220064327A1 (KYMAB, published 2022).

Changes are numbered by the printed parent chain.

The chains are these.
B1: NINA-0128 (antibody, V domains shown)
VH: EVQLVESGGGFVQPGGSLRLSCAVSGFTFNSYWMSWVRQAPGKGLEWVANINQDGSEKFYVASVKGRFTMSRDNAKKSVYVQMNSLRAEDTAVYYCAREGYSSSSYYGMDVWGQGTTVTVSS
VL: SYVLTQPPSVSVAPGETARITCGGDNIGRKSVYWYQQKSGQAPVLVIYYDSDRPSGIPERFSGSNSGNTATLTISRVEAGDEADYYCQVWDGSSDHWVFGGGTKLTVL
B2: NINA-1280.0128 (antibody, V domains shown)
VH: B1 VH with T28R, E57R, S104I, S105K
VL: B1 VL
B3: NINA-1091.0128 (antibody, V domains shown)
VH: B1 VH with E57R, S103I
VL: B1 VL
B4: NINA-0436.0128 (antibody, V domains shown)
VH: B1 VH with S104I
VL: B1 VL
B5: NINA-1172.0128 (antibody, V domains shown)
VH: B1 VH with E57R, S104I, S105K
VL: B1 VL
B6: TINA-0638.0128 (antibody, V domains shown)
VH: QVQLIQSGAEVKKPGASVKVSCKASRYSFTSYYMHWVRQAPGQGLEWMGIINPKSGSTSYAQKFQGRVTMTRDTSTSTVYMELSSLRSEDTAVYYCARDGYGSSSRCLMLWGQGTLVTVSS
VL: B1 VL
notes: Monospecific IgG; position is IMGT numbering, not a count on the entry
B7: NINA-0440.0128 (antibody, V domains shown)
VH: B1 VH with S104N
VL: B1 VL
B8: NINA-0442.0128 (antibody, V domains shown)
VH: B1 VH with S104Q
VL: B1 VL
B9: NINA-0445.0128 (antibody, V domains shown)
VH: B1 VH with S104V
VL: B1 VL
B10: NINA-0444.0128 (antibody, V domains shown)
VH: B1 VH with S104T
VL: B1 VL
B11: NINA-0456.0128 (antibody, V domains shown)
VH: B1 VH with S105L
VL: B1 VL
B12: TINA-0202.0128 (antibody, V domains shown)
VH: B6 VH with K12Q, M109Q
VL: B1 VL
notes: Monospecific IgG4PE
B13: TINA-0201.0128 (antibody, V domains shown)
VH: B6 VH with M109Q
VL: B1 VL
notes: Monospecific IgG4PE
B14: TINA-0666.0128 (antibody, V domains shown)
VH: B6 VH with C107I, L108I, M109Q
VL: B1 VL
notes: Monospecific IgG
B15: TINA-0616.0128 (antibody, V domains shown)
VH: B6 VH with L108I, M109Q
VL: B1 VL
notes: as for B6
B16: TINA-0215.0128 (antibody, V domains shown)
VH: B6 VH with I5V, M109Q
VL: B1 VL
notes: Monospecific IgG4PE
B17: TINA-0209.0128 (antibody, V domains shown)
VH: B6 VH with I5V, K12Q, M34L, S55T, S57D, S77T, S105A, M109Q
VL: B1 VL
notes: Monospecific IgG4PE
B18: TINA-0210.0128 (antibody, V domains shown)
VH: B6 VH with I5V, S84N, M109Q
VL: B1 VL
notes: Monospecific IgG4PE
B19: TINA-0211.0128 (antibody, V domains shown)
VH: B6 VH with I5V, E82D, M109Q
VL: B1 VL
notes: Monospecific IgG4PE
B20: TINA-0214.0128 (antibody, V domains shown)
VH: B6 VH with I5V, P14T, K23Q, M109Q
VL: B1 VL
notes: Monospecific IgG4PE
B21: TINA-0203.0128 (antibody, V domains shown)
VH: B6 VH with I5V, S84I, M109Q
VL: B1 VL
notes: Monospecific IgG4PE
B22: TINA-0206.0128 (antibody, V domains shown)
VH: B6 VH with I5V, S57D, E82D, S105A, M109Q
VL: B1 VL
notes: Monospecific IgG4PE
B23: TINA-0204.0128 (antibody, V domains shown)
VH: B6 VH with I5V, K12Q, P14T, M109Q
VL: B1 VL
notes: Monospecific IgG4PE
B24: TINA-0217.0128 (antibody, V domains shown)
VH: B6 VH with I5V, K12T, M109Q
VL: B1 VL
notes: Monospecific IgG4PE
B25: TINA-0207.0128 (antibody, V domains shown)
VH: B6 VH with I5V, P14T, M109Q
VL: B1 VL
notes: Monospecific IgG4PE

T1 sequence (P00740 47-461 limits assumed): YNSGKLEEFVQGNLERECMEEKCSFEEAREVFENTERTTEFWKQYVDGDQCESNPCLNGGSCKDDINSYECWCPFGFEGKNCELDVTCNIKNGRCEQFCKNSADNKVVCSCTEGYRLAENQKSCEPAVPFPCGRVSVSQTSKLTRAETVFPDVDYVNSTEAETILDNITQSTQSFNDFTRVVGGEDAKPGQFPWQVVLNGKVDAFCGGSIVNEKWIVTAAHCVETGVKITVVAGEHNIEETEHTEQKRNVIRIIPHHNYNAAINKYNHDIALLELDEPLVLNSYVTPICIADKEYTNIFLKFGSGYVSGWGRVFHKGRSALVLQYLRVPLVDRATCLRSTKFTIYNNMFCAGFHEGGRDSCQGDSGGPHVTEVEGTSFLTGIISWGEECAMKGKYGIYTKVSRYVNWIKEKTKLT

One assay addresses T1, human factor IX (human, UniProt P00740 47-461, 12 glutamic acid residues of the GLA domain are post-translationally γ-carboxylated).
T1 construct: Zymogen used as analyte in SPR, reconstituted at 1 mg/ml; also called FIX; Human FIX (MW ~55 KDa)
Nature of the assay: SPR as in Example 10, human FIX as analyte. As to the method: (§1) Monospecific antibodies (referred as ligand) which had been purified on Protein A were captured onto the anti-human IgG Fc CM4 surface at approximately 2 μg/ml. The ligands were injected for 60 seconds at 10 μl/min in all the active channels of all 8 flow channels. The run was performed at 25° C. using neutral pH HBS-P 1X+CaCl₂ 2.5 mM as running buffer.
(§2) Human FIX (MW ˜55 KDa) or human FX (MW ˜58 KDa) was reconstituted at 1 mg/ml in the running buffer and used as analyte. The analyte was injected in multiple cycle kinetics (MCK) mode at 3 concentrations (1.5 μM, 500 nM and 166.7 nM) with 120 seconds association phase and 200 seconds (for FIX) or 300 seconds (for FX) dissociation phase, at flow rate […] in both active and reference channels. Three injections of 10 mM Glycine pH 1.5 for 60 sec. at 10 μl/min were used for the regeneration phase.
(§3) Affinity and kinetics of purified anti-FIX and anti-FX antibodies for binding to their respective antigens was determined by SPR as described in Example 10 above.
One may read the Kd as the free concentration of one partner at which half of the binding sites on the other are occupied at equilibrium, for simple one-to-one binding. A higher Kd goes with lower affinity. The koff is the rate constant with which the complex falls apart. Low values mean a long-lived complex, high ones a short-lived complex. The kon is the second-order rate constant of association. Read a low kon as slower complex formation. In the case of B1, the Kd turned out to be 0.359 µM, the koff stood at 0.0492 s⁻¹ and the kon is 137000 M⁻¹ s⁻¹.
For B2, in that order: 0.0523 µM, 0.01 s⁻¹ and 192000 M⁻¹ s⁻¹.
For B3, in that order: 0.218 µM, 0.0352 s⁻¹ and 161000 M⁻¹ s⁻¹.
The like results for B4 were, in that order, 0.359 µM, 0.0523 s⁻¹ and 146000 M⁻¹ s⁻¹.
As to B5, the affinity, expressed as Kd, was 0.0764 µM; the dissociation rate constant (koff) worked out at 0.0171 s⁻¹; the kon is 225000 M⁻¹ s⁻¹.

In the next assay the target is T2, human factor X (human, UniProt P00742 41-179; P00742 183-488).
T2 construct: Zymogen used as analyte in SPR; also called FX; Human FX (MW ~58 KDa)
T2 sequence (P00742 41-179, chain 1 of 2): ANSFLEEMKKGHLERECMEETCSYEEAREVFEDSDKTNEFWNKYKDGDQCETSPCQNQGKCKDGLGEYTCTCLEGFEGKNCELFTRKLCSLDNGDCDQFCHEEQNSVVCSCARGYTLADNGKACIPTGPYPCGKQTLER
T2 sequence (P00742 183-488, chain 2 of 2): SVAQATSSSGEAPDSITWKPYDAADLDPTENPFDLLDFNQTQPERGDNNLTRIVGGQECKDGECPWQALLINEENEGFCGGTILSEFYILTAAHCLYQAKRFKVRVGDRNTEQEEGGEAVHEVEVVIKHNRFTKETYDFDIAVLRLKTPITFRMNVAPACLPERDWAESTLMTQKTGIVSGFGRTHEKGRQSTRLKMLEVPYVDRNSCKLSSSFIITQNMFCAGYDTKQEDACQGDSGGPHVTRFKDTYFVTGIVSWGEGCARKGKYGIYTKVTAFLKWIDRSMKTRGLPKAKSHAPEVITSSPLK
The assay is described as follows: SPR as in Example 10, human FX as analyte.
For the molecule B6, the equilibrium dissociation constant (Kd) is 0.3 to 3 µM.

Another assay addresses T1, human factor IX. Nature of the assay: SPR, IgG captured on anti-human IgG Fc, human FIX as analyte. As to the method:
(§4) SPR was used to determine the binding affinity (KD) to FIX or FX respectively, the kinetic constants on-rate (kₒₙ) and off-rate (koff). Analyses was performed using a Biacore 8K (GE Healthcare) system.
as §1, §2
For B1, the affinity, expressed as Kd, was 0.198 µM; the off-rate (koff) is 0.0576 s⁻¹; the kon came out at 292000 M⁻¹ s⁻¹.
On to B7, for which binding was put at a Kd of 0.289 µM, the koff was 0.0535 s⁻¹ and the on-rate constant (kon) was determined as 185000 M⁻¹ s⁻¹.
The molecule B4 registered a Kd of 0.184 µM, a koff of 0.0453 s⁻¹ and a kon of 246000 M⁻¹ s⁻¹.
The molecule B8 displayed a Kd of 0.242 µM, a koff of 0.0471 s⁻¹ and an association rate constant (kon) of 194000 M⁻¹ s⁻¹.
The like results for B9 were, in that order, 0.267 µM, 0.0544 s⁻¹ and 204000 M⁻¹ s⁻¹.
The like results for B10 were, in that order, 0.206 µM, 0.0445 s⁻¹ and 216000 M⁻¹ s⁻¹.
The like results for B11 were, in that order, 0.263 µM, 0.0396 s⁻¹ and 151000 M⁻¹ s⁻¹.

The target in another assay is T2, human factor X. The assay is described as follows: SPR as in Example 10, human FX as analyte. The source holds these as a separate data set. The method, then:
as §1, §2, §3
B12: the Kd came to 1.38 µM, the koff worked out at 0.0709 s⁻¹ and the kon amounted to 51300 M⁻¹ s⁻¹.
For B13, in that order: 0.816 µM, 0.0482 s⁻¹ and 59000 M⁻¹ s⁻¹.
The like results for B14 were, in that order, 0.927 µM, 0.0417 s⁻¹ and 44900 M⁻¹ s⁻¹.
B6: the Kd is 0.333 µM, the off-rate (koff) turned out to be 0.0232 s⁻¹ and the kon is 69900 M⁻¹ s⁻¹.
The like results for B15 were, in that order, 0.53 µM, 0.0222 s⁻¹ and 41900 M⁻¹ s⁻¹.

The target in a further assay is T2, human factor X. Nature of the assay: SPR, IgG captured on anti-human IgG Fc, human FX as analyte. The method, then:
as §4, §1, §2
Turning to B16, the Kd was 1.15 µM, the off-rate constant (koff) is 0.0787 s⁻¹ and the kon was determined as 68400 M⁻¹ s⁻¹.
As to B12, the equilibrium dissociation constant (Kd) turned out to be 0.812 µM, the koff stood at 0.072 s⁻¹ and the on-rate constant (kon) worked out at 88700 M⁻¹ s⁻¹.
The like results for B17 were, in that order, 1.15 µM, 0.0679 s⁻¹ and 59000 M⁻¹ s⁻¹.
For B13, in that order: 0.579 µM, 0.0502 s⁻¹ and 86700 M⁻¹ s⁻¹.
On to B18, for which binding was characterised by a dissociation constant (Kd) of 0.974 µM, the koff was found to be 0.0744 s⁻¹ and the kon is 76400 M⁻¹ s⁻¹.
For B19, in that order: 0.68 µM, 0.0447 s⁻¹ and 65700 M⁻¹ s⁻¹.
B20 had a Kd of 0.466 µM, a dissociation rate constant (koff) of 0.0558 s⁻¹ and a kon of 120000 M⁻¹ s⁻¹.
Turning to B21, binding was characterised by a dissociation constant (Kd) of 0.88 µM, the off-rate (koff) is 0.0598 s⁻¹ and the kon worked out at 68000 M⁻¹ s⁻¹.
Turning to B22, binding was put at a Kd of 0.992 µM, the koff came to 0.0667 s⁻¹ and the kon stood at 67200 M⁻¹ s⁻¹.
B23 displayed a dissociation constant (Kd) of 0.718 µM, an off-rate constant (koff) of 0.0785 s⁻¹ and a kon of 109000 M⁻¹ s⁻¹.
The like results for B24 were, in that order, 0.564 µM, 0.0574 s⁻¹ and 102000 M⁻¹ s⁻¹.
In the case of B25, the Kd worked out at 0.847 µM, the koff was determined as 0.141 s⁻¹ and the association rate constant (kon) amounted to 166000 M⁻¹ s⁻¹.
